# Measured values reported in patent US20250195658A1 (ST JUDE CHILDREN S RESEARCH HOSPITAL, published 2025).
# No end group written: not given here. *: point of attachment. Biotin = O=C1N[C@H]2[C@H](CS[C@H]2CCCCC(=O)*)N1; Ahx = NCCCCCC(=O)O
# T1: Recombinant Human IL3RA protein conjugated to APC (Creative BioMart, CAT #IL3RA-3248HA) (human, UniProt P26951 19-305, limits assumed, conjugated to APC)
# T1 construct: also called recombinant CD123 protein; Recombinant CD123
# T1 sequence (looked up): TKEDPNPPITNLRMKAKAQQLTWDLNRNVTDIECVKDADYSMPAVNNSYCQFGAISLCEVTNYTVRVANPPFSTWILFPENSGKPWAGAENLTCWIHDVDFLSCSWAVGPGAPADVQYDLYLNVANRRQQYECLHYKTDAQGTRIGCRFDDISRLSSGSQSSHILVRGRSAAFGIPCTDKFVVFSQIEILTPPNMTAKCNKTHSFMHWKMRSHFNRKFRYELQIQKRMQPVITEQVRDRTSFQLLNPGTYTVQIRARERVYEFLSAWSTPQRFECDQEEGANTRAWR
# What was measured:
# [1] = target: T1, Recombinant Human IL3RA protein …; assay: flow cytometry of CAR T cells stained with APC-conjugated recombinant human IL3RA (FIG. 2B)
# Description: (§1) Flow cytometric analysis. Cells were stained with fluorochrome-conjugated primary antibodies for 30 min at room temperature and washed with FACS buffer (5% FBS in 1×PBS) prior to analysis. Cell surface GRP78 was detected by a GRP78-specific peptide with an N-terminal Biotin tag (Biotin-Ahx-[…]; SEQ ID NO: 126) was obtained from Genscript (Piscataway, NJ) in combination with Streptavidin PE (BioLegend, San Diego, CA. CCAT #405204) using a 2-step staining protocol. Cells were incubated with GRP78 peptide for 30 minutes at room temperature, protected from light. Cells were washed twice prior to staining with additional antibodies. Recombinant CD123 Recombinant Human IL3RA protein conjugated to APC (Creative BioMart, CAT #IL3RA-3248HA) was used to detect CD123 scFv binding. The following antibodies were purchased from BD Biosciences: CCR7 Pacific Blue (BD Pharmigen, Clone G043H7 CAT #353210), CD45RO PerCP-Cy5.5 (BD Pharmigen, Clone UCHL1, CAT #560607), CD123 APC (BD Pharmigen, Clone 7G3, CAT #560087), CD3 BV421 (BD Horizon, Clone SK7, CAT #563797), CD3 BV786 (BD Horizon, Clone SK7, CAT #563800), CD19 PE-Cy7 (BD Pharmigen, Clone HIB19, CAT #560728), CD20 BV650 (BD Horizon, Clone 2H7, CAT #563780). […]
# [2] = target: T2, cell surface glucose-regulated-protein 78 (GRP78) (UniProt P11021 19-654, limits assumed); assay: flow cytometry on cell lines, 2-step staining with Streptavidin PE
# T2 construct: whole, on cells; also called GRP78 antigen; HSPA5
# Description: as §1
# T2 sequence (P11021 19-654 limits assumed): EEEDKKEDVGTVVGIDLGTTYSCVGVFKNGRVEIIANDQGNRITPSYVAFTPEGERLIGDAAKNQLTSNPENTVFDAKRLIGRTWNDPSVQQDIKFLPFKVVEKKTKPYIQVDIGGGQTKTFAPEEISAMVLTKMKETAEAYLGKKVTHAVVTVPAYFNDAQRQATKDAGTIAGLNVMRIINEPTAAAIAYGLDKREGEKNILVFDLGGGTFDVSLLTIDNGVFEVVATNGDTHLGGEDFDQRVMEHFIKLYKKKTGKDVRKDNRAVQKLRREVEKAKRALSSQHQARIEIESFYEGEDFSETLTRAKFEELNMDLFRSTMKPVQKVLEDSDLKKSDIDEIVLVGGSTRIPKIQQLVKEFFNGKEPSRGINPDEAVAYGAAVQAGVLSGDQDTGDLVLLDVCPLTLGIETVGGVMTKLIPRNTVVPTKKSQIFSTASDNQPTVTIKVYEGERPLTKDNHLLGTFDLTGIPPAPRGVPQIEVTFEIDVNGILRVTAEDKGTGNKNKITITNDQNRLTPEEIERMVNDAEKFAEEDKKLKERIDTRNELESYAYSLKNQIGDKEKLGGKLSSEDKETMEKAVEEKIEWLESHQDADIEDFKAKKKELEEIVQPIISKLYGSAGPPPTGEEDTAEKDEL
% of transduced T cells positive for recombinant CD123 protein [1],binding result [2],Binder
87.5%,,"GRP78-G4S3-CD123-CAR (other, Residues from 510 on (spacer RSGVDSG, T2A, tCD19) are also left out; also called 78.(G4S)3.123; G4S2) CTVALPGGYVRVCEFGGGGSGGGGSGGGGSAAAQVQLQQPGAELVRPGASVKLSCKASGYTFTSYWMNWVKQRPDQGLEWIGRIDPYDSETHYNQKFKDKAILTVDKSSSTAYMQLSSLTSEDSAVYYCARGNWDDYWGQGTTLTVSSGGGGSGGGGSGGGGSDVQITQSPSYLAASPGETITINCRASKSISKDLAWYQEKPGKTNKLLIYSGSTLQSGIPSRFSGSGSGTDFTLTISSLEPEDFAMYYCQQHNKYPYTFGGGTKLEIKSIEVMYPPPYLDNEKSNGTIIHVKGKHLCPSPLFPGPSKPFWVLVVVGGVLACYSLLVTVAFIIFWVRSKRSRLLHSDYMNMTPRRPGPTRKHYQPYAPPRDFAAYRSRVKFSRSADAPAYQQGQNQLYNELNLGRREEYDVLDKRRGRDPEMGGKPRRKNPQEGLYNELQKDKMAEAYSEIGMKGERRRGKGHDGLYQGLSTATKDTYDALHMQALPPR"
,binds,"{Biotin-Ahx}-CTVALPGGYVRVC (cysteine pairing not given here, Obtained from Genscript; Detected with Streptavidin PE in a 2-step staining; also called GRP78-biotin; GRP78 peptide) [GRP78-specific peptide with an N-terminal Biotin tag (Biotin-Ahx-CTVALPGGYVRVC)]"
83.6%,,GRP78-GPcPcPc-CD123-CAR (other) CTVALPGGYVRVCEFAGSGGSGGSGGSPVPSTPPTNSSSTPPTPSPSPVPSTPPTNSSSTPPTPSPSPVPSTPPTNSSSTPPTPSPSASAAAQVQLQQPGAELVRPGASVKLSCKASGYTFTSYWMNWVKQRPDQGLEWIGRIDPYDSETHYNQKFKDKAILTVDKSSSTAYMQLSSLTSEDSAVYYCARGNWDDYWGQGTTLTVSSGGGGSGGGGSGGGGSDVQITQSPSYLAASPGETITINCRASKSISKDLAWYQEKPGKTNKLLIYSGSTLQSGIPSRFSGSGSGTDFTLTISSLEPEDFAMYYCQQHNKYPYTFGGGTKLEIKSIEVMYPPPYLDNEKSNGTIIHVKGKHLCPSPLFPGPSKPFWVLVVVGGVLACYSLLVTVAFIIFWVRSKRSRLLHSDYMNMTPRRPGPTRKHYQPYAPPRDFAAYRSRVKFSRSADAPAYQQGQNQLYNELNLGRREEYDVLDKRRGRDPEMGGKPRRKNPQEGLYNELQKDKMAEAYSEIGMKGERRRGKGHDGLYQGLSTATKDTYDALHMQALPPR
